The results in this text go back to patent US20200079851A1 (University of Texas, published 2020).

Usually EC50 stands for the concentration needed to bring the measured effect to its halfway point. A high value points to a need for much substance. Broadly, the EC50 (read off the curve) is the concentration at which the effect is half-maximal. High values mean a need for much substance, low ones an effect from little substance.

Test [1] deals with T1, LILRB1 (human, UniProt Q8NHL6 24-458, limits assumed).
T1 construct: also called leukocyte immunoglobulin-like receptor subfamily B member 1
T1 sequence (Q8NHL6 24-458 limits assumed): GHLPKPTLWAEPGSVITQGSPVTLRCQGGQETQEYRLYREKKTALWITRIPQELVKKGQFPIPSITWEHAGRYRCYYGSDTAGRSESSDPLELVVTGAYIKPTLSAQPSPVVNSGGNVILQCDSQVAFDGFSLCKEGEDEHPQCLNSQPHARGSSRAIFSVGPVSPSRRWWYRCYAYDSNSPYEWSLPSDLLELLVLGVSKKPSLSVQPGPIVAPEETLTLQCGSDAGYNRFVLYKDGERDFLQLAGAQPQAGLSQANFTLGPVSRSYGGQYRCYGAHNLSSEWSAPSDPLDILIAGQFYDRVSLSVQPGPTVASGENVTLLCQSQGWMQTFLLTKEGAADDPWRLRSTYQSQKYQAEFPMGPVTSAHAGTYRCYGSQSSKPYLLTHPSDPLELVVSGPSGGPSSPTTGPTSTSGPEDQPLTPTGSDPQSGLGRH
Description: cross-reactivity ELISA (FIG. 46). Background: In an ELISA, binding on a coated surface is turned into a signal by an enzyme label.

For test [2], the target named is T2, LILRB5 (human, UniProt O75023 24-458, limits assumed). Briefly: cross-reactivity ELISA (FIG. 46).
T2 sequence (O75023 24-458 limits assumed): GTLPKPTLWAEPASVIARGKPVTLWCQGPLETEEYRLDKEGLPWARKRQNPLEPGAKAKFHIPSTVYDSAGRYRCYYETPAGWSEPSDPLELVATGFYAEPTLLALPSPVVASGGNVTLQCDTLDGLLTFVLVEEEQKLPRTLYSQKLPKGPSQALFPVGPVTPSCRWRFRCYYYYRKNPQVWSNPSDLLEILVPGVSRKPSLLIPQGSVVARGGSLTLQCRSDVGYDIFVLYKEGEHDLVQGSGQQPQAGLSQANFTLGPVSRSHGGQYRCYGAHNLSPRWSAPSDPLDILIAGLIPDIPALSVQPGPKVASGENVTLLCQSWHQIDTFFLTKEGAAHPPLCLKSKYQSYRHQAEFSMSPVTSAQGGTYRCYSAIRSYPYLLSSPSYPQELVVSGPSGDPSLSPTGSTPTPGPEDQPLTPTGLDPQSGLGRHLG
Test [3] has as its target T3, human LILRB4 (human, UniProt Q8NHJ6 22-259, limits assumed).
T3 construct: also called leukocyte immunoglobulin-like receptor subfamily B member 4
Description: ELISA, OD450 against antibody concentration.

Another test addresses T4, D2.
T4 construct: also called LILRB4 D2-hIgG1-Fc; second Ig-like domain of LILRB4 as Fc fusion
Description: matrix of binding to LILRB4 domain-Fc fusions (FIG. 47); ELISA per paragraph 433.

Test [4] addresses T5, LILRB4 D1 (first Ig-like domain) Fc fusion protein (human, UniProt Q8NHJ6 27-118).
T5 construct: also called D1 of LILRB4; not shown: Fc part
The test is described as above.

In the next test the target is T6, SR.
T6 construct: also called LILRB4 SR-hIgG1-Fc; stalk region of LILRB4 as Fc fusion
T6 sequence (fusion chain, as listed by the source): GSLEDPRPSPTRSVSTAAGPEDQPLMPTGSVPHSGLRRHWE
The description is as above.

Test [5] deals with T3, human LILRB4. Briefly: ELISA.
The target of test [6] is T7, D2-SR-M2(139-235).
T7 chain: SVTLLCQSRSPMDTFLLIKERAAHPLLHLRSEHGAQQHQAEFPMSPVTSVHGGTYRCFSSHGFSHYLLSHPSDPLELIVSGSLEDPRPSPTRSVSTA
Briefly: ELISA, mAb 216-2 titrated.

In test [7] the target is D2-SR-M15(139-219). Briefly: ELISA, mAb 216-2 titrated.
For the next test, the target named is D2-SR-M16(210-259). Briefly: ELISA, mAb 139 titrated.
Sequence of D2-SR-M16(210-259) (chain, as listed by the source): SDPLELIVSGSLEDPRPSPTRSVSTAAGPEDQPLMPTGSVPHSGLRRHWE
In test [8] the target is T8, LILRB3 (human, UniProt O75022 24-443, limits assumed).
T8 construct: also called leukocyte immunoglobulin-like receptor subfamily B member 3
T8 sequence (O75022 24-443 limits assumed): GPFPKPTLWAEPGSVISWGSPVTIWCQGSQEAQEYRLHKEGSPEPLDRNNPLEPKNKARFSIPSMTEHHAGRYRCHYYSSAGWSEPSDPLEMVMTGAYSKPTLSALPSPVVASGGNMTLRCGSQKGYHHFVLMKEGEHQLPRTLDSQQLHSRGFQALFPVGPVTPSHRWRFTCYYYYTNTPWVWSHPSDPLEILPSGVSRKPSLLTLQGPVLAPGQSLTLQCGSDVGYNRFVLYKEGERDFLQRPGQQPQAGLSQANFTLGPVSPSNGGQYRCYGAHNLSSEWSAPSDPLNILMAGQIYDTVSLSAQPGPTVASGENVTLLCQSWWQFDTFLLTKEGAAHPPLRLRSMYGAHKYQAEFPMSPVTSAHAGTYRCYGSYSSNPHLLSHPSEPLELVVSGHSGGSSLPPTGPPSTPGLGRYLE
Description: cross-reactivity ELISA (FIG. 46).

For test [9], the target named is T9, D2-SR-Fc.
T9 construct: also called D2-SR-WT
T9 sequence (Q8NHJ6 119-259): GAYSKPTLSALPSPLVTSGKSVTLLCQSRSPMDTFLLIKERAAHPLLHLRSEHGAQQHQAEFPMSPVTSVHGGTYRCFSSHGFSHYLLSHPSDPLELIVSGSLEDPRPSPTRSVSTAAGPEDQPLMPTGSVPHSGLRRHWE
Description: ELISA, mAb titrated.

In test [10] the target is T1, LILRB1. Description: cross-reactivity test on the LILRBs (ELISA per paragraph 433).
The target of test [11] is T3, human LILRB4. Briefly: ELISA, OD450 against antibody concentration. This is another data set of the same source.
Test [12] deals with T9, D2-SR-Fc. Description: ELISA, mAb titrated on D2-SR-wt(119-259).
Test [13] concerns the target T3, human LILRB4. Description: ELISA, OD450 against antibody concentration. The source holds these as a separate data set.
Test [14] concerns the target T7, D2-SR-M2(139-235). Description: ELISA, mAb 8 titrated.
The target in test [15] is D2-SR-M15(139-219). Description: ELISA, mAb 8 titrated.
The target of another test is D2-SR-M1(139-259). Briefly: ELISA, mAb titrated on D2-SR-M1(139-259).
The target in the next test is T10, LILRB2 (human, UniProt Q8N423 22-458, limits assumed).
T10 construct: also called leukocyte immunoglobulin-like receptor subfamily B member 2
T10 sequence (Q8N423 22-458 limits assumed): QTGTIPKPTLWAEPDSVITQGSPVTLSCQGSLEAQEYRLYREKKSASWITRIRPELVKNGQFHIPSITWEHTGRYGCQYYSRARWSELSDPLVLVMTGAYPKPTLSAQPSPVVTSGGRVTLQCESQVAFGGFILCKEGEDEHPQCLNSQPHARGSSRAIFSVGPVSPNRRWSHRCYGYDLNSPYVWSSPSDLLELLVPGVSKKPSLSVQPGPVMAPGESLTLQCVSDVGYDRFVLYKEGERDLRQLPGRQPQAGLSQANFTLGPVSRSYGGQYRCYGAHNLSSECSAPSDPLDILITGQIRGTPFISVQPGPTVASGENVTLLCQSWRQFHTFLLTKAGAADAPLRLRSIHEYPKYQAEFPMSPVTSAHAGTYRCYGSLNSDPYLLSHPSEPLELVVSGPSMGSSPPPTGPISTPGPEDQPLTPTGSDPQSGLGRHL
Briefly: cross-reactivity test on the LILRBs (ELISA per paragraph 433).

In test [16] the target is T2, LILRB5. The test is described as above.
Test [17] addresses T8, LILRB3. The test is described as above.

T5 sequence (Q8NHJ6 27-118): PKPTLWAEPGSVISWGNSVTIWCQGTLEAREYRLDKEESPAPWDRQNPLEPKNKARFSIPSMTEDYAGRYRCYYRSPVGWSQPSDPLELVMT
T4 sequence (fusion chain, as listed by the source): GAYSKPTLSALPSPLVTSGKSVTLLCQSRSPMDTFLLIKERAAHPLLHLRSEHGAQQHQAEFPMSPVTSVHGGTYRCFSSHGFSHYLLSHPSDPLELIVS

B1: anti-LILRB4 rabbit monoclonal antibody #216-2 (antibody, V domains shown)
VH: EQSLKESGGRLVTPGTPLTLTCTVSGIDLSSYAMTWVRQVPGKGLEYIGFINIVGIAGYATWAKGRFTISKTSTTVDLKVTSPTTEDTATYFCARNWIRLDLWGQGTLVTVSS
VL: ELVMTQTPASVSAAVGGTVTISCQSSESLYKKNYLSWFQQKPGQPPKLLIYEASKLASGVPSRFSGSGSGTQFTLTISDVQCDDAASYYCLGDYTNGRDTTFGGGTEVEIK
For B1, the binding result with LILRB1 [1] is given as “binds”; with LILRB5 [2], “binds”; with D2, “no binding”; in test [4], “no binding”; with SR, “binds”; in the test with D2-SR-M2(139-235) [6], “no binding (tested: 1000 ng/ml)”. Further, the binding result in the test with D2-SR-M15(139-219) [7] is on record as “no binding (tested: 1000 ng/ml)”. Further, the EC50 with human LILRB4 [3] was 0.0097 µg/mL; with human LILRB4 [5], 64.7 pM.

B2: anti-LILRB4 rabbit monoclonal antibody #139 (antibody, V domains shown)
VH: EQSLEESGGRLVTPGTPLTLTCTVSGFSLNSYAMAWVRQAPGKGLEWIGIIGLSTMTYYASWVNGRFTISKTSTTVDLKMTSLTTEDTATYFCVRNDVYWAFNLWGQGTLVTVSS
VL: ELDLTQTPSSVSAGVGGTVSISCQSSESVVNNHALSWYQQKPGQPPKLLIYKASTLASGVPSRFSGSGSGAQFTLTISGVQCDDAATYYCQGGFYSGISDYPFGGGTEVEIK
For B2, the binding result in the test with D2-SR-M16(210-259) is given as “no binding (tested: 1000 ng/ml)”; with LILRB5 [2], “binds”; with LILRB3 [8], “binds”; with LILRB1 [10], “no binding”; with D2 it was “binds”; in [4], “no binding”. Besides, in the test with SR, the binding result is recorded as “no binding”. Also, the “EC50 (read off the curve)” value with D2-SR-Fc [9] was roughly 0.06 µg/mL. In addition, the EC50 came out at 0.0125 µg/mL with human LILRB4 [11] and 83.2 pM with human LILRB4 [5].

B3: anti-LILRB4 rabbit monoclonal antibody #8 (antibody, V domains shown)
VH: QSVKESGGGLVTPGGTLTLTCTASGFSLISYDMYWVRQAPGKGLEYIGIIYSDGYTFYATGAKGRITISRTSTTVDLKITSPTTEDTATYFCATNAFALWGQGTLVTISS
VL: ELDLTQTPSSVSAAVGGTVTISCQSSQNVYNNNWLVWLQQKPGQPPKRLIYTASSLASGVPSRFAGSGSATQFTLTISDLECGDAATYYCAGGYSGPIYTFGGGTEVEIK
notes: also called mAb 8
For the molecule B3, the concentration giving a half-maximal response (EC50 (read off the curve)) with D2-SR-Fc [12] and with D2-SR-M1(139-259) was roughly 0.03 µg/mL throughout. In addition, the EC50 turned out to be 0.00943 µg/mL in the test with human LILRB4 [13] and 62.9 pM in the test with human LILRB4 [5]. Moreover, the binding result in the test with D2-SR-M2(139-235) [14] is given as “no binding (tested: 1000 ng/ml)”; with D2-SR-M15(139-219) [15] it was “no binding (tested: 1000 ng/ml)”; with LILRB1 [10], “no binding”; with LILRB2, “no binding”; with LILRB5 [16] it was “no binding”; with LILRB3 [17], “no binding”. For the same molecule, the binding result in the test with D2 is listed as “no binding”; in test [4] it was “no binding”; in the test with SR, “binds”.
